In assay [1] the target is T1, MBP (UniProt P0AEX9 27-396 = MBP). The assay can be described thus: Native-PAGE mobility shift, Coomassie staining (Fig. 6D).
Assay [2] has as its target T1, MBP. Nature of the assay: Native-PAGE mobility shift, Coomassie staining (Fig. 6C).

B1: 绿色荧光蛋白(GFP)纳米抗体 D5 (VHH)
VHH: DVQLQESGGGLVQPGGSLRLSCAASGIIFSIYDMGWYRQAPGKQRELVALITIHRSTNYEDSVKGRFTISRDNAKNTVYLQMNSLKPEDTAVYYCNANGVNYQYWGQGTQVTVSS
modifications: biotinylated (Sulfo-NHS-LC-biotin kit) in the ELISA of Example 5; not biotinylated in the Native-PAGE of Example 6
notes: Printed molecular weight 16.6 KDa; also called D5抗体; D5-biotin; not shown: Flag tag from vector pBAD24-Flag-His; C-terminal 6xHis tag from vector pBAD24-Flag-His
Take B1: the binding result in the assay with MBP [1] was “no binding (tested: 3μg MBP和3μg纯化的纳米抗体)”.

B2: 绿色荧光蛋白(GFP)纳米抗体 A12 (VHH)
VHH: DVQLQESGGGLVQAGGSLRLSCAASGGTFSILSLGWFRQAPGKEREFVAAISRSEGSTDYADFVKGRFMISRENAKNTAYLQMNSLKPEDTAVYFCAASYARRLSTTASRVLYWGQGTQVTVSS
modifications: biotinylated (Sulfo-NHS-LC-biotin kit) in the ELISA of Example 5; not biotinylated in the Native-PAGE of Example 6
notes: Printed molecular weight 15.7 KDa; also called A12抗体; pADL-10b-A12-His; not shown: C-terminal 6xHis tag from vector pADL-10b-His
Turning to B2, in the assay with MBP [2], the binding result is listed as “no binding (tested: 3μg MBP和3μg纯化的纳米抗体)”.

B3: 绿色荧光蛋白(GFP)纳米抗体 E6 (VHH)
VHH: DVQLQESGGGLVQAGGSLRLSCAASGRFVSSYIMGWFRQAPGKEREAVASILRSVDATYYADSVKGRFTISRDNDKNTVYLQMNSLKPEDTAVYYCATRARGYFGSFGRLWPDDRQYDYWGQGTQVTVSS
modifications: biotinylated (Sulfo-NHS-LC-biotin kit) in the ELISA of Example 5; not biotinylated in the Native-PAGE of Example 6
notes: Printed molecular weight 18.4 KDa; also called E6抗体; pBAD24-Flag-E6-His; not shown: Flag tag from vector pBAD24-Flag-His; C-terminal 6xHis tag from vector pBAD24-Flag-His
In the case of B3, the binding result with MBP [1] is given as “no binding (tested: 3μg MBP和3μg纯化的纳米抗体)”.

These data come from patent CN108753792A (UNIV SUN YAT SEN, dated 2018).
